Reference: US20230287145A1 (Hoffmann-La Roche, published 2023)

How the values were obtained:
[1] = target: T1, biotinylated anti-human CD3 IgG (anti-CD3 P035.093) (biotinylated (site not stated)); test: SPR; biotinylated anti-CD3 P035.093 IgG on CAP chip, anti-idiotypic IgG at 1 µg/ml; response normalised to anti-human IgG surface and to the unstressed sample; after 14 d at 37 °C pH 7.4
T1 construct: IgG format of this reagent is not described further; immobilised on a CAP chip; also called CD3 IgG (P035.093)
Procedure: Therefore, they were analyzed for thermal stability and remaining target binding after 14 d stress conditions (40° C. at pH6.0 or 37° C. at pH7.4).
(§1) Flow cell 1 was kept as mock surface. […] Dissociation was monitored for 30 s, the flow rate was set to 5 μl/min. The CAP chip was regenerated by injecting a mix of NaOH and Guadinium-hydrochloride for 120 s, provided in the biotin capture kit. Bulk refractive index differences were corrected by subtracting the response obtained from flow cell 1 (mock surface).

[2] = target: T1, biotinylated anti-human CD3 IgG …; test: SPR; biotinylated anti-CD3 P035.093 IgG on CAP chip, anti-idiotypic IgG at 1 µg/ml; response normalised to anti-human IgG surface and to the unstressed sample; after 14 d at 40 °C pH 6.0
Procedure: as §1

T1 sequence (VH, as listed by the source, chain 1 of 2): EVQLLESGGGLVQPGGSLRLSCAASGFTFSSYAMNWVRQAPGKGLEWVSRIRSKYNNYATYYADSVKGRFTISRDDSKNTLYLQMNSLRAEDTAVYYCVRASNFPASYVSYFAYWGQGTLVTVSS
T1 sequence (VL, as listed by the source, chain 2 of 2): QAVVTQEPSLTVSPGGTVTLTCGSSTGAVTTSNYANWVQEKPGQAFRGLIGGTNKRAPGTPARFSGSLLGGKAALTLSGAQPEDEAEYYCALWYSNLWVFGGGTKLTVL

Rel. active concentration [%] [1] [%]	Rel. active concentration [%] [2] [%]	Binder
87	97	Humanized variant H3L3 of anti-idiotypic antibody 4.24.72 (IgG) (antibody, V domains shown, Produced and purified as IgG; also called Mask humanization variant H3L3) VH: QVQLVQSGSELKKPGASVKVSCKASGYTVTDYSMNWVRQAPGQGLEWMGWINTETGEPRYTQGFKGRFVFSLDTSVSTAYLQISSLKAEDTAVYYCAREGDYDVFDYWGQGTLVTVSS VL: DIVMTQSPDSLAVSLGERATINCRASKSVSTSSYSYMHWYQQKPGQPPKLLIKYVSYLESGVPDRFSGSGSGTDFTLTISSLQAEDVAVYYCQQSREFPYTFGQGTKLEIK
80	98	Humanized variant H7L5 of anti-idiotypic antibody 4.24.72 (IgG) (antibody, V domains shown, Produced and purified as IgG; also called Mask humanization variant H7L5) VH: QVQLVQSGAEVKKPGASVKVSCKASGYTVTDYSMNWVRQAPGQGLEWMGWINTETGEPRYTDDFKGRVTMTRDTSISTAYMELSRLRSDDTAVYYCAREGDYDVFDYWGQGTLVTVSS VL: DIVMTQSPDSLAVSLGERATINCRASKSVSTSSYSYMHWYQQKPGQPPKLLIYYVSYLESGVPDRFSGSGSGTDFTLTISSLQAEDVAVYYCQHSREFPYTFGQGTKLEIK
